In publication PMC4216055 (Carcinogenesis, 2014):

Molecular target: the molecule itself
Experiment: cross-linking

Protein | binding result
Human recombinant granulin-epithelin precursor (rGEP) (natural protein, UniProt P28799 14-593, looked up, N-glycan (removed by PNGase F only for the gel analysis)) LVAGTRCPDGQFCPVACCLDPGGASYSCCRPLLDKWPTTLSRHLGGPCQVDAHCSAGHSCIFTVSGTSSCCPFPEAVACGDGHHCCPRGFHCSADGRSCFQRSGNNSVGAIQCPDSQFECPDFSTCCVMVDGSWGCCPMPQASCCEDRVHCCPHGAFCDLVHTRCITPTGTHPLAKKLPAQRTNRAVALSSSVMCPDARSRCPDGSTCCELPSGKYGCCPMPNATCCSDHLHCCPQDTVCDLIQSKCLSKENATTDLLTKLPAHTVGDVKCDMEVSCPDGYTCCRLQSGAWGCCPFTQAVCCEDHIHCCPAGFTCDTQKGTCEQGPHQVPWMEKAPAHLSLPDPQALKRDVPCDNVSSCPSSDTCCQLTSGEWGCCPIPEAVCCSDHQHCCPQGYTCVAEGQCQRGSEIVAGLEKMPARRASLSHPRDIGCDQHTSCPVGQTCCPSLGGSWACCQLPHAVCCEDRQHCCPAGYTCNVKARSCEKEVVSAQPATFLARSPHVGVKDVECGEGHFCHDNQTCCRDNRQGWACCPYRQGVCCADRRHCCPAGFRCAARGTKCLRREAPRWDAPLRDPALRQLL | binds
rGEP-3A (rGEP with alanine mutations at RRH(555-557)) (natural protein, human, UniProt P28799 14-593, looked up) LVAGTRCPDGQFCPVACCLDPGGASYSCCRPLLDKWPTTLSRHLGGPCQVDAHCSAGHSCIFTVSGTSSCCPFPEAVACGDGHHCCPRGFHCSADGRSCFQRSGNNSVGAIQCPDSQFECPDFSTCCVMVDGSWGCCPMPQASCCEDRVHCCPHGAFCDLVHTRCITPTGTHPLAKKLPAQRTNRAVALSSSVMCPDARSRCPDGSTCCELPSGKYGCCPMPNATCCSDHLHCCPQDTVCDLIQSKCLSKENATTDLLTKLPAHTVGDVKCDMEVSCPDGYTCCRLQSGAWGCCPFTQAVCCEDHIHCCPAGFTCDTQKGTCEQGPHQVPWMEKAPAHLSLPDPQALKRDVPCDNVSSCPSSDTCCQLTSGEWGCCPIPEAVCCSDHQHCCPQGYTCVAEGQCQRGSEIVAGLEKMPARRASLSHPRDIGCDQHTSCPVGQTCCPSLGGSWACCQLPHAVCCEDRQHCCPAGYTCNVKARSCEKEVVSAQPATFLARSPHVGVKDVECGEGHFCHDNQTCCRDNRQGWACCPYRQGVCCADAAACCPAGFRCAARGTKCLRREAPRWDAPLRDPALRQLL | binds
